In the supplement of paper PMC10899765:

Assays:
Conditions in all cases: 20 nM; 72 h
MCF10A [1] = experiment: percent viability (nuclei count relative to siNT); higher = more viable cells
Protocol: (§1)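 After 72 h, cells were fixed and stained with Hoechst and anti-fibrillarin, and nucleoli per nucleus were counted with CellProfiler. Values are plate-adjusted percent effect for the one-nucleolus and 5+ nucleoli phenotypes, normalised to siNT (0%) and to the positive controls siNOL11 or siKIF11 (100%), as the mean of biological triplicates. Percent viability is the nuclei count relative to siNT.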

MCF10A [2] = experiment: 5+ nucleoli phenotype percent effect (relative to siNT 0% and siKIF11 100%); higher = more cells with five or more nucleoli
Protocol: as §1

MCF10A [3] = experiment: one-nucleolus phenotype percent effect (relative to siNT 0% and siNOL11 100%); higher = more cells with one nucleolus (ribosome biogenesis inhibition)
Protocol: as §1

| Sequence | percent viability (MCF10A [1]) [%] | 5+ nucleoli phenotype percent effect (MCF10A [2]) [%] | one-nucleolus phenotype percent effect (MCF10A [3]) [%] |
| --- | --- | --- | --- |
| CAGGGAAAUGGGAAGAACUAGA [hsa-miR-5584-5p] | 53.3 | 34.8 | -19.1 |
| UCUCCCUUCCUGCCCUGGCUAG [hsa-miR-4685-3p] | 98.4 | 29.5 | -25.3 |
| CGGGGCCAUGGAGCAGCCUGUGU [hsa-miR-6762-5p] | 86.4 | 28.2 | -11.4 |
| CGUGUAUUUGACAAGCUGAGUU [hsa-miR-223-5p] | 20 | -35 | 31.4 |
| CACUGGCUCCUUUCUGGGUAGA [hsa-miR-892b] | 25.4 | -22.8 | 27.6 |
| CAAAAGUGAUUGUGGUUUUUGC [hsa-miR-548az-5p] | 149 | 45.1 | -15.6 |
| UGGGAGCUGGACUACUUC [hsa-miR-4300] | 19.7 | 16.1 | 21.3 |
| UGGGCUAAGGGAGAUGAUUGGGUA [hsa-miR-664b-5p] | 32.1 | 2.04 | 5.55 |
| AAUGUGGACUGGUGUGACCAAA [hsa-miR-4491] | 45.4 | 20.6 | -0.704 |
| UGAGGGGCCUCAGACCGAGCUUUU [hsa-miR-3184-5p] | 31.2 | 38.7 | 5.35 |
| UGAUUGUCUUCCCCCACCCUCA [hsa-miR-6766-3p] | 43.1 | -20.7 | 1.17 |
| AAGUCCCACUAAUGCCAGC [hsa-miR-5588-3p] | 42.5 | -3.98 | 6.67 |
| AGUUUUGCAGGUUUGCAUUUCA [hsa-miR-19b-2-5p] | 96.7 | -10.8 | 21.2 |
| AACAUUCAACCUGUCGGUGAGU [hsa-miR-181c-5p] | 79 | 3.6 | 6.56 |
| UCUGGGGAUGAGGACAGUGUGU [hsa-miR-4700-5p] | 35.8 | -10.2 | 29 |
| UUGGGGAAACGGCCGCUGAGUG [hsa-miR-2110] | 42.2 | -27.7 | 45.4 |
| CUGGGGAGUGGCUGGGGAG [hsa-miR-6763-5p] | 29.7 | -2.28 | 30.5 |
| ACCGAAGACUGUGCGCUAAUCU [hsa-miR-4671-5p] | 99.3 | 14.8 | -20.7 |
| CCAGUGGGGCUGCUGUUAUCUG [hsa-miR-194-3p] | 138 | 10.5 | -11.8 |
| CUAGGUAUGGUCCCAGGGAUCC [hsa-miR-331-5p] | 111 | 19 | -17.6 |
| UUGCAGCUGCCUGGGAGUGACUUC [hsa-miR-1301] | 49 | -32.5 | 26.9 |
| ACCGCCUGCCCAGUGA [hsa-miR-4485-5p] | 70.4 | 24.1 | -16.3 |
| UCCCAAGGGUGAGAUGCUGCCA [hsa-miR-6814-5p] | 48.6 | -13.3 | 7.66 |
| UGGGAACUUAGUAGAGGUUUAA [hsa-miR-4471] | 26.7 | 7.89 | 5.31 |
